# T1: EsCas13d, nuclease-dead (Eubacterium siraeum, UniProt B0MS50, R295A;H300A;R849A;H854A)
# T1 sequence: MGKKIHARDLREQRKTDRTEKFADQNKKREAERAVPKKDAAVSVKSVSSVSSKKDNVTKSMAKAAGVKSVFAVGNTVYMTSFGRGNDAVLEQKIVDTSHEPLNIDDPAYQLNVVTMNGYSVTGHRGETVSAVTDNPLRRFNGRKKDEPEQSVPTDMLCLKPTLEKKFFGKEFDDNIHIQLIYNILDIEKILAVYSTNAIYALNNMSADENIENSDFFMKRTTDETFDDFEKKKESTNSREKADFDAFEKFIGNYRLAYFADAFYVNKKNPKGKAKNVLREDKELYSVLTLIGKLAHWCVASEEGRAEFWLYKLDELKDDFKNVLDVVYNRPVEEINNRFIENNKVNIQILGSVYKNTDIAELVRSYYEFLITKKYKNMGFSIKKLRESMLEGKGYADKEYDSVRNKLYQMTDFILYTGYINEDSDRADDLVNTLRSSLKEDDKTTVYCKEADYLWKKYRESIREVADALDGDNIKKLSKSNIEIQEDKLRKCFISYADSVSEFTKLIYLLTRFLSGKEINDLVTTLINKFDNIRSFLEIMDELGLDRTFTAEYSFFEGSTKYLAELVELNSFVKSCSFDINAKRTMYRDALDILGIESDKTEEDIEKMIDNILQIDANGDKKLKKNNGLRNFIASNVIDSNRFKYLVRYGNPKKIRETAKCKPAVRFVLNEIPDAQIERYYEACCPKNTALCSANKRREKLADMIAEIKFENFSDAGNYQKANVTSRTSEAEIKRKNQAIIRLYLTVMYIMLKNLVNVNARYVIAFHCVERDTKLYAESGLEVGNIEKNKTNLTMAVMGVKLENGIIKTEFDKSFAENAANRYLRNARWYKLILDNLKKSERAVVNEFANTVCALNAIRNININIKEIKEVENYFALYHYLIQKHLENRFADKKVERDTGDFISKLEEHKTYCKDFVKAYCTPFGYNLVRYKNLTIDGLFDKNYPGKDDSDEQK
# Biological target: T1, EsCas13d, nuclease-dead
# Assay: crRNA (strand 1, pre-loaded); Mg2+; 40 mM Tris-HCl pH 7.5, 150 mM NaCl, 6 mM MgCl2, 1 mM DTT, 0.1% Tween-20, 0.2 mg/ml BSA; 25 C; 10 min per concentration, then washed
# Details: tags: His6-TwinStrep-SUMO cleaved; N-terminal SNAP kept (SNAP-Surface 488); label: 3' end held by stalled T7 RNA polymerase
row,Binder,Kd
1,"target 1 insC 3' of 9,insA 3' of 3 (mixed) RNA 1: CACCCGUGCAAAAAUGCAGGGGUCUAAAACUGAGCGGAUAACCUCUCUAUGG RNA 2: GGGAAUGGAUCCACAUCUACGAAUUCGUACCAUAGAGAGGUUACUCCGCUACACCGAGAUCGGAAGAGCACACGU",11.1 ± 0.6 nM
2,"target 1 insA 3' of 13,insG 3' of 7 (mixed) RNA 1: CACCCGUGCAAAAAUGCAGGGGUCUAAAACUGAGCGGAUAACCUCUCUAUGG RNA 2: GGGAAUGGAUCCACAUCUACGAAUUCGUACCAUAGAGAGAGUUAUCGCGCUCACCGAGAUCGGAAGAGCACACGU",4.48 ± 0.22 nM
3,"target 1 insA 3' of 21,insC 3' of 8 (mixed) RNA 1: CACCCGUGCAAAAAUGCAGGGGUCUAAAACUGAGCGGAUAACCUCUCUAUGG RNA 2: GGGAAUGGAUCCACAUCUACGAAUUCGUACCAAUAGAGAGGUUAUCCCGCUCACCGAGAUCGGAAGAGCACACGU",21.5 ± 1.1 nM
4,target 1 complement block 5-10 (mixed) RNA 1: CACCCGUGCAAAAAUGCAGGGGUCUAAAACUGAGCGGAUAACCUCUCUAUGG RNA 2: GGGAAUGGAUCCACAUCUACGAAUUCGUACCAUAGAGAGGUAUAGGCCUCACCGAGAUCGGAAGAGCACACGU,14.5 ± 0.7 nM
5,target 2 MT 5'PFS GGU 3'PFS UAC (mixed) RNA 1: CACCCGUGCAAAAUUGCAGGGGUCUAAAACCUUCUCCAAAUUGUUUCAUCCU RNA 2: GGGAAUGGAUCCACAUCUACGAAUUCGGUAGGAUGAAACAAUUUGGAGAAGUACAGAUCGGAAGAGCACACGU,15.9 ± 1.8 nM
6,target 2 MT 5'PFS GUG 3'PFS UUC (mixed) RNA 1: CACCCGUGCAAAAUUGCAGGGGUCUAAAACCUUCUCCAAAUUGUUUCAUCCU RNA 2: GGGAAUGGAUCCACAUCUACGAAUUCGUGAGGAUGAAACAAUUUGGAGAAGUUCAGAUCGGAAGAGCACACGU,27 ± 4 nM
7,target 2 MT 5'PFS GUA 3'PFS CGG (mixed) RNA 1: CACCCGUGCAAAAUUGCAGGGGUCUAAAACCUUCUCCAAAUUGUUUCAUCCU RNA 2: GGGAAUGGAUCCACAUCUACGAAUUCGUAAGGAUGAAACAAUUUGGAGAAGCGGAGAUCGGAAGAGCACACGU,6.9 ± 0.4 nM
8,target 2 MT 5'PFS GAG 3'PFS UUC (mixed) RNA 1: CACCCGUGCAAAAUUGCAGGGGUCUAAAACCUUCUCCAAAUUGUUUCAUCCU RNA 2: GGGAAUGGAUCCACAUCUACGAAUUCGAGAGGAUGAAACAAUUUGGAGAAGUUCAGAUCGGAAGAGCACACGU,15.7 ± 2.5 nM
9,target 2 MT 5'PFS UGC 3'PFS AUA (mixed) RNA 1: CACCCGUGCAAAAUUGCAGGGGUCUAAAACCUUCUCCAAAUUGUUUCAUCCU RNA 2: GGGAAUGGAUCCACAUCUACGAAUUCUGCAGGAUGAAACAAUUUGGAGAAGAUAAGAUCGGAAGAGCACACGU,28 ± 9 nM
10,target 2 MT 5'PFS UAG 3'PFS ACA (mixed) RNA 1: CACCCGUGCAAAAUUGCAGGGGUCUAAAACCUUCUCCAAAUUGUUUCAUCCU RNA 2: GGGAAUGGAUCCACAUCUACGAAUUCUAGAGGAUGAAACAAUUUGGAGAAGACAAGAUCGGAAGAGCACACGU,3 ± 0.5 nM
11,target 2 MT 5'PFS UGC 3'PFS AUC (mixed) RNA 1: CACCCGUGCAAAAUUGCAGGGGUCUAAAACCUUCUCCAAAUUGUUUCAUCCU RNA 2: GGGAAUGGAUCCACAUCUACGAAUUCUGCAGGAUGAAACAAUUUGGAGAAGAUCAGAUCGGAAGAGCACACGU,33 ± 7 nM
12,target 2 MT 5'PFS UAG 3'PFS ACG (mixed) RNA 1: CACCCGUGCAAAAUUGCAGGGGUCUAAAACCUUCUCCAAAUUGUUUCAUCCU RNA 2: GGGAAUGGAUCCACAUCUACGAAUUCUAGAGGAUGAAACAAUUUGGAGAAGACGAGAUCGGAAGAGCACACGU,3.12 ± 0.29 nM
13,target 2 MT 5'PFS UUG 3'PFS UGC (mixed) RNA 1: CACCCGUGCAAAAUUGCAGGGGUCUAAAACCUUCUCCAAAUUGUUUCAUCCU RNA 2: GGGAAUGGAUCCACAUCUACGAAUUCUUGAGGAUGAAACAAUUUGGAGAAGUGCAGAUCGGAAGAGCACACGU,14.1 ± 2.2 nM
14,target 2 MT 5'PFS GUG 3'PFS AUA (mixed) RNA 1: CACCCGUGCAAAAUUGCAGGGGUCUAAAACCUUCUCCAAAUUGUUUCAUCCU RNA 2: GGGAAUGGAUCCACAUCUACGAAUUCGUGAGGAUGAAACAAUUUGGAGAAGAUAAGAUCGGAAGAGCACACGU,11.3 ± 1.5 nM
15,target 2 MT 5'PFS GUG 3'PFS UUA (mixed) RNA 1: CACCCGUGCAAAAUUGCAGGGGUCUAAAACCUUCUCCAAAUUGUUUCAUCCU RNA 2: GGGAAUGGAUCCACAUCUACGAAUUCGUGAGGAUGAAACAAUUUGGAGAAGUUAAGAUCGGAAGAGCACACGU,22.5 ± 3.2 nM
16,target 2 MT 5'PFS UUG 3'PFS UGU (mixed) RNA 1: CACCCGUGCAAAAUUGCAGGGGUCUAAAACCUUCUCCAAAUUGUUUCAUCCU RNA 2: GGGAAUGGAUCCACAUCUACGAAUUCUUGAGGAUGAAACAAUUUGGAGAAGUGUAGAUCGGAAGAGCACACGU,16.8 ± 1.9 nM
17,target 2 MT 5'PFS GCU 3'PFS UGU (mixed) RNA 1: CACCCGUGCAAAAUUGCAGGGGUCUAAAACCUUCUCCAAAUUGUUUCAUCCU RNA 2: GGGAAUGGAUCCACAUCUACGAAUUCGCUAGGAUGAAACAAUUUGGAGAAGUGUAGAUCGGAAGAGCACACGU,17.7 ± 2.7 nM
18,target 2 MT 5'PFS GGU 3'PFS CUU (mixed) RNA 1: CACCCGUGCAAAAUUGCAGGGGUCUAAAACCUUCUCCAAAUUGUUUCAUCCU RNA 2: GGGAAUGGAUCCACAUCUACGAAUUCGGUAGGAUGAAACAAUUUGGAGAAGCUUAGAUCGGAAGAGCACACGU,16.7 ± 1.3 nM
19,target 2 MT 5'PFS GAA 3'PFS UCU (mixed) RNA 1: CACCCGUGCAAAAUUGCAGGGGUCUAAAACCUUCUCCAAAUUGUUUCAUCCU RNA 2: GGGAAUGGAUCCACAUCUACGAAUUCGAAAGGAUGAAACAAUUUGGAGAAGUCUAGAUCGGAAGAGCACACGU,30 ± 9 nM
20,target 2 MT 5'PFS AUG 3'PFS AUG (mixed) RNA 1: CACCCGUGCAAAAUUGCAGGGGUCUAAAACCUUCUCCAAAUUGUUUCAUCCU RNA 2: GGGAAUGGAUCCACAUCUACGAAUUCAUGAGGAUGAAACAAUUUGGAGAAGAUGAGAUCGGAAGAGCACACGU,9.9 ± 1.4 nM
21,target 2 MT 5'PFS GAG 3'PFS UUU (mixed) RNA 1: CACCCGUGCAAAAUUGCAGGGGUCUAAAACCUUCUCCAAAUUGUUUCAUCCU RNA 2: GGGAAUGGAUCCACAUCUACGAAUUCGAGAGGAUGAAACAAUUUGGAGAAGUUUAGAUCGGAAGAGCACACGU,18 ± 2.2 nM
22,target 2 MT 5'PFS GUG 3'PFS AUU (mixed) RNA 1: CACCCGUGCAAAAUUGCAGGGGUCUAAAACCUUCUCCAAAUUGUUUCAUCCU RNA 2: GGGAAUGGAUCCACAUCUACGAAUUCGUGAGGAUGAAACAAUUUGGAGAAGAUUAGAUCGGAAGAGCACACGU,11.3 ± 0.9 nM
23,target 2 MT 5'PFS GUG 3'PFS UUU (mixed) RNA 1: CACCCGUGCAAAAUUGCAGGGGUCUAAAACCUUCUCCAAAUUGUUUCAUCCU RNA 2: GGGAAUGGAUCCACAUCUACGAAUUCGUGAGGAUGAAACAAUUUGGAGAAGUUUAGAUCGGAAGAGCACACGU,61 ± 13 nM
24,target 2 MT 5'PFS GAA 3'PFS UCC (mixed) RNA 1: CACCCGUGCAAAAUUGCAGGGGUCUAAAACCUUCUCCAAAUUGUUUCAUCCU RNA 2: GGGAAUGGAUCCACAUCUACGAAUUCGAAAGGAUGAAACAAUUUGGAGAAGUCCAGAUCGGAAGAGCACACGU,32 ± 6 nM
25,target 2 MT 5'PFS UAG 3'PFS ACC (mixed) RNA 1: CACCCGUGCAAAAUUGCAGGGGUCUAAAACCUUCUCCAAAUUGUUUCAUCCU RNA 2: GGGAAUGGAUCCACAUCUACGAAUUCUAGAGGAUGAAACAAUUUGGAGAAGACCAGAUCGGAAGAGCACACGU,7.3 ± 2.1 nM
26,target 2 MT 5'PFS GAA 3'PFS UCG (mixed) RNA 1: CACCCGUGCAAAAUUGCAGGGGUCUAAAACCUUCUCCAAAUUGUUUCAUCCU RNA 2: GGGAAUGGAUCCACAUCUACGAAUUCGAAAGGAUGAAACAAUUUGGAGAAGUCGAGAUCGGAAGAGCACACGU,13.1 ± 1.6 nM
27,target 2 MT 5'PFS CAG 3'PFS UAC (mixed) RNA 1: CACCCGUGCAAAAUUGCAGGGGUCUAAAACCUUCUCCAAAUUGUUUCAUCCU RNA 2: GGGAAUGGAUCCACAUCUACGAAUUCCAGAGGAUGAAACAAUUUGGAGAAGUACAGAUCGGAAGAGCACACGU,5.3 ± 1 nM
28,target 2 MT 5'PFS UGC 3'PFS AUG (mixed) RNA 1: CACCCGUGCAAAAUUGCAGGGGUCUAAAACCUUCUCCAAAUUGUUUCAUCCU RNA 2: GGGAAUGGAUCCACAUCUACGAAUUCUGCAGGAUGAAACAAUUUGGAGAAGAUGAGAUCGGAAGAGCACACGU,28 ± 6 nM

# — paper PMC10786891, “Massively parallel profiling of RNA-targeting CRISPR-Cas13d”
